Four molecules from US6190920A, “Method for detecting enzyme catalyzed cyclization” (The Regents of the University of California, priority 1997, dated 2001) can be followed below.

As a reminder, the Km is the substrate concentration at which the rate is half of its maximum. What is called Ki is the dissociation constant of the complex between target and ligand, obtained from inhibition or displacement.

Assay type in all cases: biochemical, bovine
Experiment [1] has as its target T1, Trypsin (Bos taurus, UniProt P00760).
T1 construct: Trypsin (from bovine pancrease, Type I, ethanol precipitate); purchased Sigma Type I (catalogue number not given); host or cells: bovine pancreas
T1 sequence (P00760 24-246): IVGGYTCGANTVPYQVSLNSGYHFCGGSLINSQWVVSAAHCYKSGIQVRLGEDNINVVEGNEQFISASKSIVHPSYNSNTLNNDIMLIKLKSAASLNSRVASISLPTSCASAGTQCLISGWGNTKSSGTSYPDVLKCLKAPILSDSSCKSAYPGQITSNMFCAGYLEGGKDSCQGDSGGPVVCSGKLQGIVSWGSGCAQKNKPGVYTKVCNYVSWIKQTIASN
Kind of experiment: Trypsin assay (L-BAPNA hydrolysis, absorbance at 410 nm). To be noted: 5% DMSO. As to the method:
(§1) Reagents and solvents were obtained from commercial suppliers and used as received. Trypsin (from bovine pancrease, Type I, ethanol precipitate) and N-α-benzoyl-L-arginine-p-nitroanilide, hydrochloride were obtained from Sigma®. All moisture- or air-sensitive reactions were conducted under nitrogen in dried solvents. Unless otherwise indicated, chromatography was performed on silica gel with the indicated solvent as eluant. […]
All assays were performed at 37° C. on a Kontron Uvikon 860 UV-Vis spectrophotmeter. The forward reaction rate was measured by monitoring the absorbance change at 410 nm of the para-nitroanilide produced ( e=8800 M^-1 cm^-1 at 410 nm) at 30 sec intervals for 15 min. The concentrations of inhibitor solutions were determined spectrophotometrically from Disperse Red 1's extinction coefficient of 15,562 M^-1 cm^-1 at 490 nm. […] Inhibition constants (Ki 's) were determined from the slope of the V0 /v vs. [inhibitor] plots where the slope=1/Ki (1 +[L-BAPNA]/Km) and Km =2.0 +/-0.3 mM, V0 =rate in the absence of inhibitor and v=rate in the presence of inhibitor. […]

Experiment [2] addresses T1, Trypsin. Put plainly: Trypsin-catalyzed cyclization of acyclic compound, products determined. As to conditions: 30:30:40 DMF/ethanol/pH 6.5 Tris buffer. As to the method: The structure was determined conventionally.
The compound of Formula III SEQ ID NO: 1 where L is a resin linker was treated in the same manner, and the resin component removed. […] Therefore the material on the resin is accessible to the enzyme. A control experiment without the enzyme gave only starting material.
as §1

The target of experiment [3] is T1, Trypsin. Kind of experiment: Dye retention on resin after trypsin treatment and cleavage of ester X. As to conditions: trypsin in 30:30:40 DMF/ethanol/pH 6.5 Tris buffer, then 1:1 methanol/1M sodium hydroxide, filtered and washed. An excerpt:
The compound of formula (3) is soluble; the compounds of formula (4) and (5) are not, as a consequence of their attachment to a resin. Therefore, whether or not cyclization has taken place, a solid insoluble product will remain, which can be filtered off and purified by washing. However, if cyclization has taken place and a product of formula (5) has been formed, the dye will still be attached to the resin, which consequently is visibly colored, or is visible under UV or by fluorescence, depending upon the dye used. If cyclization has not taken place and products of formula (3) and (4) have been formed, the dye will be seen in the filtrate and the insoluble resin material will be colorless.
The specific analogs that afford positive results in this screen may be then identified by conventional analysis of the material that is isolated from the resin beads by cleaving the bond linking the material to the resin beads. […]

Where a name gives a salt, the structure may show the parent alone. *1 amine or outer side, *2 acyl side, *3 side chain or, on linkers, in order; H or OH if unused. Where a SMILES comes first, the peptide text is derived from it. Bridges are numbered along the chain shown (N, C = ends). Where no end group is shown, it is not given here. [ ]: non-standard residue; d: D form. The star is where a group is joined. X2 = CCN(CCN([C@@H](Cc1ccc(O)cc1)C(=O)[*:2])[*:1])c1ccc(N=Nc2ccc([N+](=O)[O-])cc2)cc1; X1 = NC(=O)CCCC(=O)*

For `NC(N)=NCCCC(NC(=O)c1ccccc1)C(=O)Nc1ccc([N+](=O)[O-])cc1` [L-BAPNA, N-α-benzoyl-L-arginine-p-nitroanilide, hydrochloride, reference compound], on Trypsin [1] (100 mM TRIS/10 mM CaCl2 (pH=8.0), Lineweaver-Burke and non-linear regression of initial rates), the Km was 2000 ± 300 µM.

As to `CCN(CCN1C(=O)[C@H](CC(C)C)NC(=O)[C@H](CO)NC(=O)[C@H](CCCNC(=N)N)NC(=O)[C@@H](NC(=O)CCCC(N)=O)[C@@H](C)OC(=O)[C@H](C(C)C)NC(=O)[C@@H]1Cc1ccc(O)cc1)c1ccc(N=Nc2ccc([N+](=O)[O-])cc2)cc1` [macrocyclic analog] (X1-TRSL[X2]V; ester 1-C), on Trypsin [1] (37° C., 100 mM TRIS/10 mM CaCl2 pH=8.0, substrate L-BAPNA, average value of 3 separate determinations, read-out: inhibition constant Ki), the Ki was 230 nM.

“O-{N-[L-Serinyl-L-leucyl]-N-[(4-nitrophenylazo)-2-aminophenylethyl-N-ethyl]-L-tyrosinyl-L-valinyl}-N-(glutaryl-photolinker-Tentagel-amide)-L-threonyl-L-arginine, Methyl Ester (SLYVTR-OMe; also: Tyr3 N-substituted with (4-nitrophenylazo)-2-aminophenylethyl-N-ethyl group, Val4-Thr5 ester bond via Thr side-chain OH, backbone changed)”: in the experiment with Trypsin [2], the cyclization by trypsin entry is “The same products A and B were obtained”. In addition, the “retention of dye colour on resin” value in the experiment with Trypsin [3] is on record as “The color was retained on the resin”.

As to “O-{N-[L-serinyl-L-leucyl]-N-[(4-nitrophenylazo)-2-aminophenylethyl-N-ethyl]-L-tyrosinyl-L-valinyl}-N-(glutaryl carboxamide)-L-threonyl-L-arginine, Methyl Ester (SLYVTR-OMe; also: depsipeptide: Val ester-linked to Thr side-chain O, Tyr N-substituted with (4-nitrophenylazo)-2-aminophenylethyl-N-ethyl azo dye, Thr N-acylated with glutaryl carboxamide) [Ser--Leu--N(dye)--Tyr--Val--O--Thr(NH--C(O)--(CH2)3 CONH--L)--Arg--OR, R methyl, L hydrogen]”, the cyclization by trypsin result with Trypsin [2] is on record as “readily cyclized”.
